Test [1] deals with T1, human OT7T175 (metastin receptor) (human, UniProt Q969F8 1-398). The test is described as follows: cell-based or functional assay.
Test [2] deals with T1, human OT7T175 (metastin receptor). The test is described as follows: competition with Cy-5 metastin (40-54) on hOT7T175-CHO cells, FMAT.
For test [3] the target is unchanged. The test is described as follows: cell-based or functional assay. The source holds these as a separate data set.
Test [4] has the same target. The test is described as follows: cell-based or functional assay. The source holds these as a separate data set.

Read-outs that look alike come from different tables or passages of the source. Starred links: 1 amine or outer side, 2 acyl side, 3 side chain; linkers in the order of their positions; H or OH if unused. Non-standard residues stand in square brackets, D forms with d. No end group written: not given here. *: point of attachment. Tyr(Me) = COc1ccc(C[C@H](N[*:1])C(=O)[*:2])cc1; Arg(Me) = CNC(=N)NCCC[C@H](N)C(=O)O; Fmoc = O=C(OCC1c2ccccc2-c2ccccc21)*; Lys(Me2) = CN(C)CCCC[C@H](N)C(=O)O; Abu = CC[C@H](N)C(=O)O; azaGly = NNC(=O)O

T1 sequence (Q969F8 whole entry L364H): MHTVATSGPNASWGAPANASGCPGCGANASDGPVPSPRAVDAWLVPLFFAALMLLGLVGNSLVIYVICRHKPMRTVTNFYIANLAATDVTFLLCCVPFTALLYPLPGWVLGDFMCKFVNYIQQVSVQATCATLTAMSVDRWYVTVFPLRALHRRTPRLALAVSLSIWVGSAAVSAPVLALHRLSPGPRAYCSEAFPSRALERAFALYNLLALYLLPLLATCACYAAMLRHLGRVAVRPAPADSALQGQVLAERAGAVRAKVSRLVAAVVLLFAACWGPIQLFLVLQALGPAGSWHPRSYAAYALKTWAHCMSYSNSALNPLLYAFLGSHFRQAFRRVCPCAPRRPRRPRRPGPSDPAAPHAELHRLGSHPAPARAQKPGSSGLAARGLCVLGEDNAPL

Turning to YNWNSFGARF-NH2 [[Ala8]MS10], the “Ca ion level-increasing activity (FLIPR)” value in test [1] was 1 x Metastin (1-54).

B1: des(1)-[D-Tyr2,AzaGly7,Arg(Me)9]MS10 (peptide)
peptide: [dY]WNSF[azaGly]L[Arg(Me)]F-NH2
modifications: N-terminus assumed
SMILES: CNC(=N)NCCC[C@H](NC(=O)[C@H](CC(C)C)NC(=O)NNC(=O)[C@H](Cc1ccccc1)NC(=O)[C@H](CO)NC(=O)[C@H](CC(N)=O)NC(=O)[C@H](Cc1c[nH]c2ccccc12)NC(=O)[C@H](N)Cc1ccc(O)cc1)C(=O)N[C@@H](Cc1ccccc1)C(N)=O
notes: also called Compound No. 222
Regarding B1, in test [2], the IC50 (in general, the concentration needed to halve the response being measured) is 33 nM. Further, the “Ca ion level-increasing activity (FLIPR)” value in test [3] is 10 x Metastin (1-54). Moreover, the “Ca ion level-increasing activity (FLIPR, 40 s)” value in test [4] amounted to 2.7 EC50/MS10 EC50.

Consider Fmoc-NSFGL[Arg(Me)]F-NH2 [des(1-3)-Fmoc-[Arg(Me)9]MS10], for which the “Ca ion level-increasing activity (FLIPR)” value in test [1] was 1 x Metastin (1-54).

In test [2], YNWNSFGLRX (Pya(4)10; C-terminal amide, also called Compound No. 17) [[Pya(4)10]MS10] had an IC50 of 0.0066 nM. Moreover, in test [1], the “Ca ion level-increasing activity (FLIPR)” value was 5 x Metastin (1-54).

Take SNWNSFGLRF-NH2 [[Ser1]MS10]: the “Ca ion level-increasing activity (FLIPR)” value in test [1] is 1 x Metastin (1-54).

For YNWNSFGLRX (Hph10; C-terminal amide) [[Hph10]MS10], the “Ca ion level-increasing activity (FLIPR)” value in test [1] is 1 x Metastin (1-54).

Molecule YNWNSFALRF-NH2 (also called Compound No. 50) [[Ala7]MS10] showed an IC50 in test [2] of 190 nM. Besides, the “Ca ion level-increasing activity (FLIPR)” value in test [1] was 30 x Metastin (1-54).

B2: [D-Tyr1,Ala5,Arg(Me)9]MS10 (peptide)
peptide: [dY]NWNAFGL[Arg(Me)]F-NH2
modifications: N-terminus assumed
SMILES: CNC(=N)NCCC[C@H](NC(=O)[C@H](CC(C)C)NC(=O)CNC(=O)[C@H](Cc1ccccc1)NC(=O)[C@H](C)NC(=O)[C@H](CC(N)=O)NC(=O)[C@H](Cc1c[nH]c2ccccc12)NC(=O)[C@H](CC(N)=O)NC(=O)[C@H](N)Cc1ccc(O)cc1)C(=O)N[C@@H](Cc1ccccc1)C(N)=O
Consider B2, for which, in test [2], the IC50 turned out to be 36 nM. The “Ca ion level-increasing activity (FLIPR)” value in test [3] is 10 x Metastin (1-54). Moreover, the “Ca ion level-increasing activity (FLIPR, 40 s)” value in test [4] came to 1.1 EC50/MS10 EC50.

Take [dY]NWTSFGL[Arg(Me)]F-NH2 (also called Compound No. 208) [[D-Tyr1,Thr4,Arg(Me)9]MS10]: the IC50 in test [2] was 830 nM. For the same molecule, in test [3], the “Ca ion level-increasing activity (FLIPR)” value is 1 x Metastin (1-54). In addition, the “Ca ion level-increasing activity (FLIPR, 40 s)” value in test [4] was 7.3 EC50/MS10 EC50.

B3: [D-Tyr1,Thr5,Arg(Me)9]MS10 (peptide)
peptide: [dY]NWNTFGL[Arg(Me)]F-NH2
modifications: N-terminus assumed
SMILES: CNC(=N)NCCC[C@H](NC(=O)[C@H](CC(C)C)NC(=O)CNC(=O)[C@H](Cc1ccccc1)NC(=O)[C@@H](NC(=O)[C@H](CC(N)=O)NC(=O)[C@H](Cc1c[nH]c2ccccc12)NC(=O)[C@H](CC(N)=O)NC(=O)[C@H](N)Cc1ccc(O)cc1)[C@@H](C)O)C(=O)N[C@@H](Cc1ccccc1)C(N)=O
notes: also called Compound No. 211
B3: the IC50 in test [2] was found to be 44 nM. In addition, in test [3], the “Ca ion level-increasing activity (FLIPR)” value is 10 x Metastin (1-54). Moreover, the “Ca ion level-increasing activity (FLIPR, 40 s)” value in test [4] was determined as 1.3 EC50/MS10 EC50.

Molecule YNWNLFGLRF-NH2 (also called Compound No. 24) [[Leu5]MS10] registered an IC50 in test [2] of 0.83 nM. Moreover, the “Ca ion level-increasing activity (FLIPR)” value in test [1] is 1 x Metastin (1-54).

B4: [D-Tyr1,Ala3,Arg(Me)9]MS10 (peptide)
peptide: [dY]NANSFGL[Arg(Me)]F-NH2
modifications: N-terminus assumed
SMILES: CNC(=N)NCCC[C@H](NC(=O)[C@H](CC(C)C)NC(=O)CNC(=O)[C@H](Cc1ccccc1)NC(=O)[C@H](CO)NC(=O)[C@H](CC(N)=O)NC(=O)[C@H](C)NC(=O)[C@H](CC(N)=O)NC(=O)[C@H](N)Cc1ccc(O)cc1)C(=O)N[C@@H](Cc1ccccc1)C(N)=O
notes: also called Compound No. 169
On to B4, for which, in test [2], the IC50 amounted to 160 nM. For the same molecule, the “Ca ion level-increasing activity (FLIPR)” value in test [1] was 2 x Metastin (1-54).

B5: [D-Tyr1,Ser3,Arg(Me)9]MS10 (peptide)
peptide: [dY]NSNSFGL[Arg(Me)]F-NH2
modifications: N-terminus assumed
SMILES: CNC(=N)NCCC[C@H](NC(=O)[C@H](CC(C)C)NC(=O)CNC(=O)[C@H](Cc1ccccc1)NC(=O)[C@H](CO)NC(=O)[C@H](CC(N)=O)NC(=O)[C@H](CO)NC(=O)[C@H](CC(N)=O)NC(=O)[C@H](N)Cc1ccc(O)cc1)C(=O)N[C@@H](Cc1ccccc1)C(N)=O
notes: also called Compound No. 170
As for B5, in test [2], the IC50 came out at 260 nM. Besides, the “Ca ion level-increasing activity (FLIPR)” value in test [1] is 1 x Metastin (1-54).

In test [2], YNWNSFGLR[Tyr(Me)]-NH2 (also called Compound No. 18) [[Tyr(Me)10]MS10] had an IC50 of 7.7 nM. In addition, the “Ca ion level-increasing activity (FLIPR)” value in test [1] is 1 x Metastin (1-54).

YNWNSFSLRF-NH2 (also called Compound No. 101) [[Ser7]MS10] had an IC50 in test [2] of 100 nM. The “Ca ion level-increasing activity (FLIPR)” value in test [1] is 10 x Metastin (1-54).

DNWNSFGLRF-NH2 (also called Compound No. 75) [[Asp1]MS10]: in test [2], the half-maximal inhibitory concentration (IC50) amounted to 880 nM. Besides, the “Ca ion level-increasing activity (FLIPR)” value in test [1] is 1 x Metastin (1-54).

B6: [D-Tyr1,Arg(Me)9,Trp10]MS10 (peptide)
peptide: [dY]NWNSFGL[Arg(Me)]W-NH2
modifications: N-terminus assumed
SMILES: CNC(=N)NCCC[C@H](NC(=O)[C@H](CC(C)C)NC(=O)CNC(=O)[C@H](Cc1ccccc1)NC(=O)[C@H](CO)NC(=O)[C@H](CC(N)=O)NC(=O)[C@H](Cc1c[nH]c2ccccc12)NC(=O)[C@H](CC(N)=O)NC(=O)[C@H](N)Cc1ccc(O)cc1)C(=O)N[C@@H](Cc1c[nH]c2ccccc12)C(N)=O
notes: also called Compound No. 174
In test [2], B6 gave an IC50 of 420 nM. The “Ca ion level-increasing activity (FLIPR)” value in test [3] was 10 x Metastin (1-54). In test [4], the “Ca ion level-increasing activity (FLIPR, 40 s)” value worked out at 2.3 EC50/MS10 EC50.

B7: [D-Tyr1,Ile3,Arg(Me)9]MS10 (peptide)
peptide: [dY]NINSFGL[Arg(Me)]F-NH2
modifications: N-terminus assumed
SMILES: CC[C@H](C)[C@H](NC(=O)[C@H](CC(N)=O)NC(=O)[C@H](N)Cc1ccc(O)cc1)C(=O)N[C@@H](CC(N)=O)C(=O)N[C@@H](CO)C(=O)N[C@@H](Cc1ccccc1)C(=O)NCC(=O)N[C@@H](CC(C)C)C(=O)N[C@@H](CCCNC(=N)NC)C(=O)N[C@@H](Cc1ccccc1)C(N)=O
notes: also called Compound No. 206
With B7, the IC50 in test [2] amounted to 85 nM. Further, the “Ca ion level-increasing activity (FLIPR)” value in test [3] is 10 x Metastin (1-54). Further, the “Ca ion level-increasing activity (FLIPR, 40 s)” value in test [4] amounted to 4.8 EC50/MS10 EC50.

As to Fmoc-NSFGLRF-NH2 [des(1-3)-Fmoc-MS10], the “Ca ion level-increasing activity (FLIPR)” value in test [1] is 1 x Metastin (1-54).

Consider YKWNSFGLRF-NH2 [[Lys2]MS10], for which the “Ca ion level-increasing activity (FLIPR)” value in test [1] is 1 x Metastin (1-54).

Regarding YNWNSFGXRF (Nle8; C-terminal amide, also called Compound No. 105) [[Nle8]MS10], the IC50 in test [2] stood at 880 nM. For the same molecule, the “Ca ion level-increasing activity (FLIPR)” value in test [1] is 1 x Metastin (1-54).

B8: [D-Tyr1,Ala7,Arg(Me)9]MS10 (Compound No. 173) (peptide)
peptide: [dY]NWNSFAL[Arg(Me)]F-NH2
modifications: N-terminus assumed
SMILES: CNC(=N)NCCC[C@H](NC(=O)[C@H](CC(C)C)NC(=O)[C@H](C)NC(=O)[C@H](Cc1ccccc1)NC(=O)[C@H](CO)NC(=O)[C@H](CC(N)=O)NC(=O)[C@H](Cc1c[nH]c2ccccc12)NC(=O)[C@H](CC(N)=O)NC(=O)[C@H](N)Cc1ccc(O)cc1)C(=O)N[C@@H](Cc1ccccc1)C(N)=O
Turning to B8, the “Ca ion level-increasing activity (FLIPR)” value in test [1] was 1 x Metastin (1-54).

Turning to [dY]NWNSF[azaGly]L[Arg(Me)]F-NH2 (also called Compound No. 232) [[D-Tyr1,AzaGly7,Arg(Me)9]MS10], the IC50 in test [2] is 49 nM. Moreover, the “Ca ion level-increasing activity (FLIPR)” value in test [3] is 3 x Metastin (1-54). In addition, in test [4], the “Ca ion level-increasing activity (FLIPR, 40 s)” value is 3.9 EC50/MS10 EC50.

B9: des(1-2)-Fmoc-MS10 (peptide)
peptide: Fmoc-WNSFGLRF-NH2
SMILES: CC(C)C[C@H](NC(=O)CNC(=O)[C@H](Cc1ccccc1)NC(=O)[C@H](CO)NC(=O)[C@H](CC(N)=O)NC(=O)[C@H](Cc1c[nH]c2ccccc12)NC(=O)OCC1c2ccccc2-c2ccccc21)C(=O)N[C@@H](CCCNC(=N)N)C(=O)N[C@@H](Cc1ccccc1)C(N)=O
notes: also called Compound No. 54
Consider B9, for which, in test [2], the IC50 was 450 nM. Besides, the “Ca ion level-increasing activity (FLIPR)” value in test [1] was 5 x Metastin (1-54).

B10: [Abu8]MS10 (peptide)
peptide: YNWNSFG[Abu]RF-NH2
modifications: N-terminus assumed
SMILES: CC[C@H](NC(=O)CNC(=O)[C@H](Cc1ccccc1)NC(=O)[C@H](CO)NC(=O)[C@H](CC(N)=O)NC(=O)[C@H](Cc1c[nH]c2ccccc12)NC(=O)[C@H](CC(N)=O)NC(=O)[C@@H](N)Cc1ccc(O)cc1)C(=O)N[C@@H](CCCNC(=N)N)C(=O)N[C@@H](Cc1ccccc1)C(N)=O
notes: also called Compound No. 187
Molecule B10 displayed an IC50 in test [2] of 720 nM. In test [3], the “Ca ion level-increasing activity (FLIPR)” value was 1 x Metastin (1-54). Also, the “Ca ion level-increasing activity (FLIPR, 40 s)” value in test [4] is 1.9 EC50/MS10 EC50.

In the case of KNWNSFGLRF-NH2 [[Lys1]MS10], the “Ca ion level-increasing activity (FLIPR)” value in test [1] was 1 x Metastin (1-54).

With Fmoc-NWNSFGLRF-NH2 [des(1)-Fmoc-MS10], the “Ca ion level-increasing activity (FLIPR)” value in test [1] is 5 x Metastin (1-54).

Regarding YNWNSFGL[Lys(Me2)]F-NH2 [[Lys(Me2)9]MS10], the “Ca ion level-increasing activity (FLIPR)” value in test [1] was 0.5 x Metastin (1-54).

B11: Metastin (peptide)
peptide: GTSLSPPPESSGSRQQPGLSAPHSRQIPAPQGAVLVQREKDLPNYNWNSFGLRF
For the molecule B11, the “Ca ion level-increasing activity (FLIPR)” value in test [1] was 1 x Metastin (1-54).

YNWNSXGLRF (D-Tyr1; Cha6; Arg(Me)9; C-terminal amide) [[D-Tyr1,Cha6,Arg(Me)9]MS10 (Compound No. 172)]: in test [1], the “Ca ion level-increasing activity (FLIPR)” value is 1 x Metastin (1-54).

The record behind these values is US20090298765A1 (Takeda / Millennium, published 2009).
